# B1: recombinant C1 inhibitor with N-terminal hexahistidine tag, expressed in E. coli (other)
# chain: DRICTNCCAGTKGCKYFSDDGTFVCEGESDPRNPKACTLNCDPRIAYGVCPRSEEKKN
# notes: also called 6H.C1; not shown: hexahistidine tag at the N-terminus from the pQE-30 vector
# Molecular target: T1, NaPI-insensitive chymotrypsin from H. punctigera (HpCh5), native enzyme from the larval gut (Helicoverpa punctigera)
# T1 construct: also called NaPI-insensitive protease; Rech1a
# Test: affinity column of immobilized recombinant C1, trypsin-depleted gut extract passed through
# Method: The midgut was dissected from 80 fourth instar larvae and buffer soluble extracts were prepared. The gut extract was depleted of trypsins by repeated passage through a benzamidine-Sepharose affinity column. […] This column was expected to specifically bind NaPI-sensitive chymotrysins.
# The filtered gut extract was passed through the benzamidine column five times to remove the trypsins.
# T1 sequence (chain, as listed by the source limits assumed): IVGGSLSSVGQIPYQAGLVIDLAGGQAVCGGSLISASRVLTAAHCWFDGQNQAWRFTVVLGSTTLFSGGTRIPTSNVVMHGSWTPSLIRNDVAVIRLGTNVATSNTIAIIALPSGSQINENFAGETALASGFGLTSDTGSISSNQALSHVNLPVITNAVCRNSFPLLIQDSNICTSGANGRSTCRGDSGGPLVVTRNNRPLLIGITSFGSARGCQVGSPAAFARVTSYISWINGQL
binder,measurement,value
B1,binding result,no binding
